Experimental data from PMC4716839.

Columns and labels:
[1] = tested on: Dna2 D278A (nuclease-dead) (Mus musculus); experiment: EMSA; settings: Kd only in figure; EMSA: 20 mM Tris-HCl pH 8.0, 80 mM NaCl, 0.3 mM TCEP, 0.2 mg/mL BSA, 2% glycerol, on ice 30 min, 0.075 or 0.3 nM 32P-DNA; 4% native PAGE, 1x TB, 4 C; scale: affinity relative to 5'(dT)24
[2] = tested on: Dna2 D278A (nuclease-dead) (Mus musculus); experiment: bead pull-down; settings: DNA preloaded with Rpa, EMSA: 20 mM Tris-HCl pH 8.0, 80 mM NaCl, 0.3 mM TCEP, 0.2 mg/mL BSA, 2% glycerol, on ice 30 min, 0.075 or 0.3 nM 32P-DNA, 4% native PAGE, 1x TB, 4 C, scale: % Dna2 loading relative to reaction lacking Rpa

Substance | binding signal [1] | further results
5'(dT)6 overhang DNA | 0.01 | 
5'(dT)8 overhang DNA | 0.01 | 
3'-(dT)26 overhang DNA, biotinylated |  | binding signal ([2]; negligible loading): 3
5'-(dT)26 overhang DNA, biotinylated |  | binding signal [2]: 45
